In the assay the target is T1, GST full-length Sp7 (mouse, UniProt Q8VI67 1-428).
T1 construct: Sp7 (Osterix, Osx), mouse cDNA, full length; also called GST-Sp7; Osterix
Put plainly: co-IP; purified GST fusion proteins incubated together, immunoprecipitated with anti-Sp7, anti-Dlx3 or anti-GCN5 antibody and protein G agarose beads, IgG as negative control, detected by Western blotting. The conditions noted are these: both partners purified. For orientation: In western blotting, separated proteins are transferred to a membrane and probed.

T1 sequence (Q8VI67 whole entry): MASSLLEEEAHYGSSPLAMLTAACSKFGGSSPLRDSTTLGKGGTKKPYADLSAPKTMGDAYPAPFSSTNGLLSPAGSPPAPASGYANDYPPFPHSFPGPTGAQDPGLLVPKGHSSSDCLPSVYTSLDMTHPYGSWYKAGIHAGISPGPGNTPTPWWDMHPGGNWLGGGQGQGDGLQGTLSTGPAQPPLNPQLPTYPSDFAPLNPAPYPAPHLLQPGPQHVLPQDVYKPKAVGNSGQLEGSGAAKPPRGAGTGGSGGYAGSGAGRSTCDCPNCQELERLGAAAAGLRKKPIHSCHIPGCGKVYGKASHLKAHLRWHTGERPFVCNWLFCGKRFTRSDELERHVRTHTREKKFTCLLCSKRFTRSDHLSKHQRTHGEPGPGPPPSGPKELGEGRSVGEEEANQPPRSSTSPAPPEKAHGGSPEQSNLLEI

B1: GST full-length Dlx3 (natural protein)
chain: not shown
notes: Dlx3, mouse cDNA, full length; also called GST-Dlx3
Take B1: the binding result is “binds”.

(Values after PMC10543288, “Loss of Bmp2 impairs odontogenesis via dysregulating pAkt/pErk/GCN5/Dlx3/Sp7” (Research Square, 2023).)
